Source: patent US7459439B2, “Granulysin peptides and methods of use thereof” (The Regents of the University of California, priority 2003, dated 2008)

B1: granulysin: 9 kDa arginine-rich protein, late T cell activation marker, member of saposin-like proteins (protein)
chain: GRDYRTCLTIVQKLKKMVDKPTQRSVSNAATRVCRTGRSRWRDVCRNFMRRYQSRVIQGLVAGETAQQICEDLR
modifications: H. sapiens

Legend:
Propionibacterium acnes = test: Killing of / antimicrobial activity against P. acnes; details: FIG. 1-3
Text: The susceptibility of a particular microbe or virus to killing or inhibition by granulysins may be determined by in vitro testing, as detailed in the experimental section. Typically a culture of the microbe is combined with granulysins at varying concentrations for a period of time sufficient to allow the protein to act, usually ranging from about one hour to one day. The viable microbes are then counted, and the level of killing determined.

[1] = system: TNF-α production by monocytes; test: Inhibition of TNF-α production by monocytes; format: cell-based; details: FIG. 4b
[2] = system: IL-12 production by monocytes; test: Inhibition of IL-12 production by monocytes; format: cell-based; details: FIG. 4a
bacterial membranes = details: Ernst et al. (2000); cited from earlier work
[3] = system: bacteria, parasites and fungi; test: Range of antimicrobial activity of granulysin; format: cell-based; details: experiments performed in applicant's laboratory
Text: Granulysin is a 9 kDa basic (arginine-rich) protein and is a member of a larger group of proteins, referred to as saposin-like proteins (sphingolipid activator protein like protein=SAPLIP). This family has been highly conserved for almost a billion years, from amoebas to humans. […] This family includes NK-lysin, isolated from pig intestines, and amoebapores, used by amoebas to kill bacterial prey. […] We have synthesized a shorter granulysin peptide 20 amino acid in length and tested for antimicrobial activity. Further modification of this peptide was done by substituting a more hydrophobic amino acid residue, tryptophan at position 44, and tested for antimicrobial activity.

M. tuberculosis = details: cited from earlier work

Molecule	killing of P. acnes / antimicrobial activity against P. acnes (Propionibacterium acnes)	inhibition of TNF-α production by monocytes [1]	inhibition of IL-12 production by monocytes [2]	alteration of bacterial membranes (bacterial membranes)	range of antimicrobial activity [3]	effect on M. tuberculosis by electron microscopy (M. tuberculosis)
granulysin peptide #31-50: Synthetic peptide of residues 31-50 of human granulysin, SEQ ID NO:2 (TRVCRTGRSRWRDVCRNFMR) (TRVCRTGRSRWRDVCRNFMR; H. sapiens)	effective at killing P. acnes					
granulysin peptide #31-50(W44): Modified 20 amino acid granulysin peptide 31-50 with tryptophan substituted at position 44; probably SEQ ID NO:3 TRVSRTGRSRWRDWSRNFMR		able to inhibit	able to inhibit IL-12			
B1	effective at killing Propionibacterium acnes			increasing their permeability, inducing lesions on the surface of bacteria and separation of the cell wall and membranes from the cytoplasm	wide range of antimicrobial activity against bacteria, parasites and fungi	trigger fluid accumulation in the periplasm of M. tuberculosis
